According to the supplement of paper PMC10567573:

B1: FAM107A (parent)
chain: HRRGLGVDSKPELQRVLEHRRRNQ

Variants of: B1
Assay: protein stability index of a GFP-peptide fusion (GPS, HEK-293T) (PSI 1-6); higher = more stable
Conditions: c terminus: a fixed tail appended
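Further: lentivirally expressed fusions sorted by FACS into six bins by GFP to DsRed ratio, PSI derived from sequencing read proportions per bin multiplied by bin number.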

In order of falling protein stability index:
1. HRRKLGVDSKPELQRVLEHRRRNQ [G4K]  5.72
2. HRRGRGVDSKPELQRVLEHRRRNQ [L5R]  5.2
3. HRRGQGVDSKPELQRVLEHRRRNQ [L5Q]  5.16
4. HRRELGVDSKPELQRVLEHRRRNQ [G4E]  5.08
5. HRRGLGVDSSPELQRVLEHRRRNQ [K10S]  5.01
6. HRRGLGVDSQPELQRVLEHRRRNQ [K10Q]  4.92
7. HRRGLGVDSDPELQRVLEHRRRNQ [K10D]  4.89
8. HRRVLGVDSKPELQRVLEHRRRNQ [G4V]  4.87
9. HRRGTGVDSKPELQRVLEHRRRNQ [L5T]  4.82
10. HRRGLGVDRKPELQRVLEHRRRNQ [S9R]  4.8
11. HRRPLGVDSKPELQRVLEHRRRNQ [G4P]  4.8
12. HRRGLGVDKKPELQRVLEHRRRNQ [S9K]  4.76
13. HRRFLGVDSKPELQRVLEHRRRNQ [G4F]  4.72
14. HRRGLGVDDKPELQRVLEHRRRNQ [S9D]  4.67
15. HRRGYGVDSKPELQRVLEHRRRNQ [L5Y]  4.66
16. HRRGLGVDIKPELQRVLEHRRRNQ [S9I]  4.66
17. HRRGLPVDSKPELQRVLEHRRRNQ [G6P]  4.63
18. HRRGLGVDSAPELQRVLEHRRRNQ [K10A]  4.56
19. HRRGLGVDSEPELQRVLEHRRRNQ [K10E]  4.55
20. HRRGLGVDSKGELQRVLEHRRRNQ [P11G]  4.55
21. HRRGMGVDSKPELQRVLEHRRRNQ [L5M]  4.52
22. HRRGLGVDSGPELQRVLEHRRRNQ [K10G]  4.5
23. HRRDLGVDSKPELQRVLEHRRRNQ [G4D]  4.49
24. HRRGLGVDSNPELQRVLEHRRRNQ [K10N]  4.48
25. HRRGLGVDHKPELQRVLEHRRRNQ [S9H]  4.46
26. HRRNLGVDSKPELQRVLEHRRRNQ [G4N]  4.42
27. HRRGLGVDGKPELQRVLEHRRRNQ [S9G]  4.41
28. HRRGLGVDEKPELQRVLEHRRRNQ [S9E]  4.39
29. HRRGLGVDPKPELQRVLEHRRRNQ [S9P]  4.38
30. HRRGLGVDSTPELQRVLEHRRRNQ [K10T]  4.38
31. HRRGLGVDSKHELQRVLEHRRRNQ [P11H]  4.35
32. HRRGEGVDSKPELQRVLEHRRRNQ [L5E]  4.34
33. HRRQLGVDSKPELQRVLEHRRRNQ [G4Q]  4.33
34. HRRYLGVDSKPELQRVLEHRRRNQ [G4Y]  4.32
35. HRRGLGVDSKPALQRVLEHRRRNQ [E12A]  4.3
36. HRRHLGVDSKPELQRVLEHRRRNQ [G4H]  4.3
37. HRRGLGVDSKDELQRVLEHRRRNQ [P11D]  4.29
38. HRRGLGVDSMPELQRVLEHRRRNQ [K10M]  4.27
39. HRRGLMVDSKPELQRVLEHRRRNQ [G6M]  4.25
40. HRRGHGVDSKPELQRVLEHRRRNQ [L5H]  4.21
41. HRRILGVDSKPELQRVLEHRRRNQ [G4I]  4.21
42. HRRRLGVDSKPELQRVLEHRRRNQ [G4R]  4.2
43. HRRGLGVDSHPELQRVLEHRRRNQ [K10H]  4.18
44. HRRGLGVDSKPKLQRVLEHRRRNQ [E12K]  4.18
45. HRRGPGVDSKPELQRVLEHRRRNQ [L5P]  4.16
46. HRRGLGVDYKPELQRVLEHRRRNQ [S9Y]  4.16
47. HRRGLGVDLKPELQRVLEHRRRNQ [S9L]  4.15
48. HRRGLGVDMKPELQRVLEHRRRNQ [S9M]  4.14
49. HRRGFGVDSKPELQRVLEHRRRNQ [L5F]  4.13
50. HRRGLGVDSKRELQRVLEHRRRNQ [P11R]  4.13
51. HRRGLGVDSKCELQRVLEHRRRNQ [P11C]  4.13
52. HRRGLGVDSKPCLQRVLEHRRRNQ [E12C]  4.11
53. HRRGLGVDSKPELDRVLEHRRRNQ [Q14D]  4.07
54. HRRGLGVDSKAELQRVLEHRRRNQ [P11A]  4.05
55. HRRGKGVDSKPELQRVLEHRRRNQ [L5K]  4.04
56. HRRGLGVDSKPELCRVLEHRRRNQ [Q14C]  4.03
57. HRRGLGVDSKPLLQRVLEHRRRNQ [E12L]  4.02
58. HRRCLGVDSKPELQRVLEHRRRNQ [G4C]  4.02
59. HRRGAGVDSKPELQRVLEHRRRNQ [L5A]  4
60. HRRGLGVDSKMELQRVLEHRRRNQ [P11M]  3.99
61. HRRGLGVDVKPELQRVLEHRRRNQ [S9V]  3.98
62. HRRGLGVDSKVELQRVLEHRRRNQ [P11V]  3.95
63. HRRGLGVDSCPELQRVLEHRRRNQ [K10C]  3.82
64. HRRGLGVDSKKELQRVLEHRRRNQ [P11K]  3.82
65. HRRGLGVDSKQELQRVLEHRRRNQ [P11Q]  3.73
66. HRRGLIVDSKPELQRVLEHRRRNQ [G6I]  3.68
67. HRRSLGVDSKPELQRVLEHRRRNQ [G4S]  3.63
68. HRRGLGVDSKPELFRVLEHRRRNQ [Q14F]  3.62
69. HRRGLGVDWKPELQRVLEHRRRNQ [S9W]  3.55
70. HRRGLGVDFKPELQRVLEHRRRNQ [S9F]  3.52
71. HRRGLGVDSKTELQRVLEHRRRNQ [P11T]  3.51
72. HRRGLYVDSKPELQRVLEHRRRNQ [G6Y]  3.5
73. HRRGLGVDSKPWLQRVLEHRRRNQ [E12W]  3.5
74. HRRGVGVDSKPELQRVLEHRRRNQ [L5V]  3.46
75. HRRGLGVDSKIELQRVLEHRRRNQ [P11I]  3.42
76. HRRTLGVDSKPELQRVLEHRRRNQ [G4T]  3.35
77. HRRALGVDSKPELQRVLEHRRRNQ [G4A]  3.35
78. HRRGLGVDSKWELQRVLEHRRRNQ [P11W]  3.25
79. HRRGLHVDSKPELQRVLEHRRRNQ [G6H]  3.22
80. HRRGLQVDSKPELQRVLEHRRRNQ [G6Q]  3.18
81. HRRGIGVDSKPELQRVLEHRRRNQ [L5I]  3.15
82. HRRGLGVCSKPELQRVLEHRRRNQ [D8C]  3.08
83. HRRGLFVDSKPELQRVLEHRRRNQ [G6F]  3.06
84. HRRGLGVDAKPELQRVLEHRRRNQ [S9A]  2.99
85. HRRGLGVDSKPRLQRVLEHRRRNQ [E12R]  2.99
86. HRRGLGVDSKPTLQRVLEHRRRNQ [E12T]  2.98
87. HRRGLTVDSKPELQRVLEHRRRNQ [G6T]  2.78
88. HRRGLGVDSWPELQRVLEHRRRNQ [K10W]  2.6
89. HRRGLGVDSKYELQRVLEHRRRNQ [P11Y]  2.59
90. HRRGLKVDSKPELQRVLEHRRRNQ [G6K]  2.56
91. HRRGLDVDSKPELQRVLEHRRRNQ [G6D]  2.51
92. HRRGLGVDSLPELQRVLEHRRRNQ [K10L]  2.36
93. HRRGLGVDSKPDLQRVLEHRRRNQ [E12D]  2.18
94. HRRGLAVDSKPELQRVLEHRRRNQ [G6A]  1.82
